From PMC12218847 (Nature Communications, 2025) come the findings set out here.

Data set [1] addresses His-tagged potato StISA1 (residues 48–793) (potato). Description: AUC.
Data set [2] deals with the molecule itself. Description: AUC.

A word on the stoichiometry N: it is the number of molecules, sites or subunits per partner or assembly. In data set [1], “His-tagged potato StISA1 (residues 48–793) (enzyme)” came in with a stoichiometry N of 2.

B1: His-tagged maize ZmISA1 (residues 45–789) (enzyme, UniProt O22637 45-789, looked up)
chain: AAARPVAEAVQAEEDDDDDDEEVAEERFALGGACRVLAGMPAPLGATALRGGVNFAVYSSGASAASLCLFAPGDLKADRVTEEVPLDPLLNRTGNVWHVFIHGDQLHGMLYGYRFDGVFAPERGQYYDVSNVVVDPYAKAVVSRGEYGVPAPGGSCWPQMAGMIPLPYNKFDWQGDLPLGYHQKDLVIYEMHLRGFTKHNSSKTKHPGTYIGAVSKLDHLKELGVNCIELMPCHEFNELEYFSSSSKMNFWGYSTINFFSPMARYSSSGIRDSGCGAINEFKAFVREAHKRGIEVIMDVVFNHTAEGNEKGPILSFRGIDNSTYYMLAPKGEFYNYSGCGNTFNCNHPVVREFIVDCLRYWVTEMHVDGFRFDLASILTRGCSLWDPVNVYGSPMEGDMITTGTPLVAPPLIDMISNDPILGNVKLIAEAWDAGGLYQVGQFPHWNVWSEWNGKYRDTVRQFIKGTDGFAGAFAECLCGSPQLYQAGGRKPWHSINFVCAHDGFTLADLVTYNSKYNLSNGEDNRDGENHNLSWNCGEEGEFASLSVRRLRKRQMRNFFVCLMVSQGVPMFYMGDEYGHTKGGNNNTYCHDHYVNYFRWDKKEEQSSDLYRFCRLMTKFRKECESLGLEDFPTSERLKWHGHQPGKPDWSEASRFVAFTMKDETKGEIYVAFNTSHLPVVVGLPERSGFRWEPVVDTGKEAPYDFLTDGLPDRAVTVYQFSHFLNSNLYPMLSYSSIILVLRPDV
With B1, in data set [2], the “stoichiometry N” value is 2.

B2: His-tagged OsISA1 (amino acids 55–803) (enzyme, Oryza sativa (rice), UniProt D0TZF0 55-803, looked up)
chain: SVASAVEVGVGEDEEEGVEEEEEEVEAVVMPERYALGGACRVLAGMPAPLGATALDGGVNFAVYSAGASAASLCLFTPDDLEADEVTEEVPLDPLFNRTGNVWHVFIEGELHNMLYGYRFDGMFAPHCGQYFDVSNVVVDPYAKAVISRGEYGVPGPGGDCWPQMAGMIPLPYSTFDWQGDLPLRYPQKDLVIYEMHLRGFTKHSSSNVEHPGTYIGAISKLDYLKELGVNCVELMPCHEFNELEYFSCSSKMNFWGYSTINFFSPMIRYSSGGIRNCGRDAINEFKTFVREAHKRGIEVIMDVVFNHTAEGNEKGPILSFRGIDNSTYYMLAPKGEFYNYSGCGNTFNCNHPVVREFIVDCLRYWVTEMHVDGFRFDLASIMTRGCSLWDPVNVYGSPVEGDMTTTGTPLATPPLIDMISNDPILGDVKLIAEAWDAGGLYQVGQFPHWKIWSEWNGKYRDIVRQFIKGTDGFAGGFAECLCGSPHLYQAGGRKPWHSINFVCAHDGFTLADLVTYNKKYNSSNGEDNRDGENHNLSWNCGEEGEFAGLSVKRLRKRQMRNFFVSLMVSQGVPMFYMGDEYGHTKGGNNNTYCHDHYVNYFRWDKKEESSDLQRFCSLMTKFRKQCESLGLADFPTAQRLHWHGHQPGKPDWSETSRFVAFSTKDETKGEIYVAFNASHLPAVVGLPERPGYRWEPLVDTGKPAPYDFLTDDLPDRAHAVHLFSHFLNSNLYPMLSYSSIILELQPDD
As to B2, the “stoichiometry N” value in data set [2] was found to be 2.

B3: Arabidopsis AtISA1 (residues 44–783) with C-terminal 6×His-tag (enzyme, UniProt O04196 44-783, looked up)
chain: AKDRRSNEAENIAVVEKPLKSDRFFISDGLPSPFGPTVRDDGVNFSVYSTNSVSATICLISLSDLRQNKVTEEIQLDPSRNRTGHVWHVFLRGDFKDMLYGYRFDGKFSPEEGHYYDSSNILLDPYAKAIISRDEFGVLGPDDNCWPQMACMVPTREEEFDWEGDMHLKLPQKDLVIYEMHVRGFTRHESSKIEFPGTYQGVAEKLDHLKELGINCIELMPCHEFNELEYYSYNTILGDHRVNFWGYSTIGFFSPMIRYASASSNNFAGRAINEFKILVKEAHKRGIEVIMDVVLNHTAEGNEKGPIFSFRGVDNSVYYMLAPKGEFYNYSGCGNTFNCNHPVVRQFILDCLRYWVTEMHVDGFRFDLGSIMSRSSSLWDAANVYGADVEGDLLTTGTPISCPPVIDMISNDPILRGVKLIAEAWDAGGLYQVGMFPHWGIWSEWNGKFRDVVRQFIKGTDGFSGAFAECLCGSPNLYQGGRKPWHSINFICAHDGFTLADLVTYNNKNNLANGEENNDGENHNYSWNCGEEGDFASISVKRLRKRQMRNFFVSLMVSQGVPMIYMGDEYGHTKGGNNNTYCHDNYMNYFRWDKKEEAHSDFFRFCRILIKFRDECESLGLNDFPTAKRLQWHGLAPEIPNWSETSRFVAFSLVDSVKKEIYVAFNTSHLATLVSLPNRPGYRWEPFVDTSKPSPYDCITPDLPERETAMKQYRHFLDANVYPMLSYSSIILLLSPIKDP
As to B3, in data set [2], the “stoichiometry N” value was determined as 2.
